Ends that are not written are not given here.
Target: T1, transferrin receptor (TfR/CD71) on TfR-expressing LAPC-4 cells (human, UniProt P02786 1-760)
T1 construct: whole, on cells
Assay: binding of dendrimer to cells in vitro; method not detailed

T1 sequence (P02786 whole entry): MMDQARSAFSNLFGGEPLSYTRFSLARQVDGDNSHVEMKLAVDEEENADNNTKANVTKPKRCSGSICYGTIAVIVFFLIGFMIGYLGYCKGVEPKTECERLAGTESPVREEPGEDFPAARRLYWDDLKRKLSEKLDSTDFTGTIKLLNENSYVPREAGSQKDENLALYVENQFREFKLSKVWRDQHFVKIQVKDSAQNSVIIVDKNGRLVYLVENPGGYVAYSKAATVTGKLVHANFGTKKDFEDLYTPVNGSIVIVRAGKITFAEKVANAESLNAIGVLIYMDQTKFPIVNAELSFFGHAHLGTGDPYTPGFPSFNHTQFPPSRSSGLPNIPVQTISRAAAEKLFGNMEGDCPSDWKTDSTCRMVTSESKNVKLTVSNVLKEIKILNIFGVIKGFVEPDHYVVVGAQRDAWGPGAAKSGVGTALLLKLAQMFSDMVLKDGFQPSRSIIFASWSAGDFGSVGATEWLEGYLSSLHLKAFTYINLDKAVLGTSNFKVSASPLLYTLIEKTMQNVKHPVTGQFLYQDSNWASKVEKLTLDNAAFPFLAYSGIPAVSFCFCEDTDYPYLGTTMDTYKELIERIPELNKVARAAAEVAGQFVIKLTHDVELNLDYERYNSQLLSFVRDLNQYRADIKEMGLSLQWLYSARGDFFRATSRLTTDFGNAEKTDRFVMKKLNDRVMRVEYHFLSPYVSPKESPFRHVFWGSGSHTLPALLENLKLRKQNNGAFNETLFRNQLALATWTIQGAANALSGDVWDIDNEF

binding result: binds
B1: TfR peptide-derivatized dendrimer (transferrin receptor (TfR/CD71) targeting peptide THRPPMWSPVWP on a 2-layer DNA dendrimer) (peptide)
peptide: THRPPMWSPVWP
modifications: also: coupled to oligonucleotide cplCap03 on a DNA dendrimer, site not given here
notes: The peptide-oligonucleotide conjugate was hybridised to capture oligonucleotides on a Cy3-labelled 2-layer DNA dendrimer carrying a ligated plasmid; About 2-5 peptides per dendrimer molecule; The protein part is only the 12-mer peptide; also called TfR targeting peptide; 2n-Cy3 3DNA-TfR peptide-K5/CFP
